Publication PMC5315667 (The Plant journal : for cell and molecular biology, 2017)

Legend:
[1] = biological target: VvEG16 (Vitis vinifera, UniProt F6I323, C21S/DEL151-151/C188S); experiment: X-ray crystallography, […] Å; type: binding; conditions: co-crystallised with 5 mM; negative subsites
[2] = biological target: T1, VvEG16 (Vitis vinifera, UniProt F6I323, E88A/DEL151-151); experiment: X-ray crystallography, […] Å; type: binding; conditions: negative subsites of chain A; from tXyGO mixture
[3] = biological target: T1, VvEG16; experiment: X-ray crystallography, […] Å; type: binding; conditions: alpha-anomer, negative subsites of chain A
[4] = substrate: O=[N+]([O-])c1ccc(O[C@@H]2O[C@H](CO)[C@@H](O[C@@H]3O[C@H](CO)[C@@H](O)[C@H](O)[C@H]3O)[C@H](O)[C@H]2O)c(Cl)c1; experiment: chromogenic substrate hydrolysis, CNP release; type: biochemical, Vitis vinifera; conditions: 20 mM sodium citrate, pH 6, 30°C
[5] = substrate: O=[N+]([O-])c1ccc(O[C@@H]2O[C@H](CO)[C@@H](O[C@@H]3O[C@H](CO)[C@@H](O[C@@H]4O[C@H](CO)[C@@H](O)[C@H](O)[C@H]4O)[C@H](O)[C@H]3O)[C@H](O)[C@H]2O)c(Cl)c1; experiment: chromogenic substrate hydrolysis, CNP release; type: biochemical, Vitis vinifera; conditions: 20 mM sodium citrate, pH 6, 30°C
[6] = substrate: O=[N+]([O-])c1ccc(O[C@@H]2O[C@H](CO)[C@@H](O[C@@H]3O[C@H](CO)[C@@H](O)[C@H](O)[C@H]3O)[C@H](O)[C@H]2O)cc1; experiment: chromogenic substrate hydrolysis, PNP release; type: biochemical, Vitis vinifera; conditions: 20 mM sodium citrate, pH 6, 30°C
[7] = substrate: O=[N+]([O-])c1ccc(O[C@@H]2O[C@H](CO)[C@@H](O[C@@H]3O[C@H](CO)[C@@H](O[C@@H]4O[C@H](CO)[C@@H](O)[C@H](O)[C@H]4O)[C@H](O)[C@H]3O)[C@H](O)[C@H]2O)cc1; experiment: chromogenic substrate hydrolysis, PNP release; type: biochemical, Vitis vinifera; conditions: 20 mM sodium citrate, pH 6, 30°C
[8] = substrate: O=[N+]([O-])c1ccc(O[C@@H]2O[C@H](CO)[C@@H](O[C@@H]3O[C@H](CO)[C@@H](O)[C@H](O)[C@H]3O)[C@H](O)[C@H]2O)c([N+](=O)[O-])c1; experiment: purified protein; conditions: 20 mM sodium citrate, pH 6, 30°C
[9] = substrate: O=[N+]([O-])c1ccc(O[C@@H]2O[C@H](CO)[C@@H](O[C@@H]3O[C@H](CO)[C@@H](O[C@@H]4O[C@H](CO)[C@@H](O)[C@H](O)[C@H]4O)[C@H](O)[C@H]3O)[C@H](O)[C@H]2O)c([N+](=O)[O-])c1; experiment: purified protein; conditions: 20 mM sodium citrate, pH 6, 30°C
[10] = substrate: O=[N+]([O-])c1ccc(O[C@@H]2O[C@H](CO)[C@@H](O[C@@H]3O[C@H](CO[C@H]4OC[C@@H](O)[C@H](O)[C@H]4O)[C@@H](O[C@@H]4O[C@H](CO[C@H]5OC[C@@H](O)[C@H](O)[C@H]5O)[C@@H](O[C@@H]5O[C@H](CO[C@H]6OC[C@@H](O)[C@H](O)[C@H]6O)[C@@H](O)[C@H](O)[C@H]5O)[C@H](O)[C@H]4O)[C@H](O)[C@H]3O)[C@H](O)[C@H]2O)c(Cl)c1; experiment: chromogenic substrate hydrolysis, CNP release; type: biochemical, Vitis vinifera; conditions: 20 mM sodium citrate, pH 6, 30°C

OC[C@H]1OC(O)[C@H](O)[C@@H](O)[C@@H]1O[C@@H]1O[C@H](CO[C@H]2OC[C@@H](O)[C@H](O)[C@H]2O)[C@@H](O[C@@H]2O[C@H](CO[C@H]3OC[C@@H](O)[C@H](O)[C@H]3O)[C@@H](O[C@@H]3O[C@H](CO[C@H]4OC[C@@H](O)[C@H](O)[C@H]4O)[C@@H](O)[C@H](O)[C@H]3O)[C@H](O)[C@H]2O)[C@H](O)[C@H]1O (stereo partly drawn) [XXXG]
X-ray crystallography, 1.59 Å [1]: Fortuitous crystallization of this variant in complex with the heptasaccharide XXXG in the negative subsites
X-ray crystallography, 1.79 Å [2]: Chain A additionally contained an apparent XXXG moiety in the negative subsites

OC[C@H]1O[C@@H](O[C@@H]2[C@@H](O)[C@H](O[C@H]3[C@H](O)[C@@H](O)[C@H](O[C@H]4[C@H](O)[C@@H](O)C(O)O[C@@H]4CO)O[C@@H]3CO)O[C@H](CO)[C@H]2O)[C@H](O)[C@@H](O)[C@@H]1O (stereo partly drawn) [G3GGG, β-D-Glcp-(1,3)-β-D-Glcp-(1,4)-β-D-Glcp-(1,4)-β-D-Glcp]
X-ray crystallography, 1.65 Å [3]: presence of the α-anomer of G3GGG in the negative subsites

B1: VvEG16 (Vitis vinifera; DEL151-151) (protein)
chain: MADPSLHHEAQPLKFIAVDYCPESCTHSPESSTITLTFDHRGGSRWRSTTRFQYGTFSSLIQCPKGNTSGLNFNIYLSSLEGDKSQDEIDFEFLGKDKRIVQTNYYTAGTGNREAIHDLGFDCSDGFHEYVIKWGPDLIQWLIDGKVIRSVRADGEGFPQKPMFLYASVWDASYIDEGRWTGPYVGCDAPYICLYKNVNVPVGTAVE
Km [4]: 3500 ± 400 µM
kcat [4]: 0.0075 ± 0.000333 s⁻¹
kcat/Km [4]: 2.1 M⁻¹ s⁻¹
Km [5]: 1100 ± 100 µM
kcat [5]: 0.0172 ± 0.000667 s⁻¹
kcat/Km [5]: 16 M⁻¹ s⁻¹
Km [6]: 5900 ± 600 µM
kcat [6]: 0.000383 ± 3.33e-05 s⁻¹
kcat/Km [6]: 0.065 M⁻¹ s⁻¹
Km [7]: 2800 ± 200 µM
kcat [7]: 0.0025 ± 0.0001 s⁻¹
kcat/Km [7]: 0.9 M⁻¹ s⁻¹
Km [8]: 2000 ± 200 µM
kcat [8]: 0.333 ± 0.0167 s⁻¹
kcat/Km [8]: 170 M⁻¹ s⁻¹
Km [9]: 800 ± 60 µM
kcat [9]: 1.58 ± 0.0333 s⁻¹
kcat/Km [9]: 2000 M⁻¹ s⁻¹

B2: VvEG16 (Vitis vinifera) (protein)
chain: MADPSLHHEAQPLKFIAVDYCPESCTHSPESSTITLTFDHRGGSRWRSTTRFQYGTFSSLIQCPKGNTSGLNFNIYLSSLEGDKSQDEIDFEFLGKDKRIVQTNYYTAGTGNREAIHDLGFDCSDGFHEYVIKWGPDLIQWLIDGKVIRSVVRADGEGFPQKPMFLYASVWDASYIDEGRWTGPYVGCDAPYICLYKNVNVPVGTAVE
Km [5]: 800 ± 100 µM
kcat [5]: 0.0163 ± 0.0005 s⁻¹
kcat/Km [5]: 20 M⁻¹ s⁻¹
Km [10]: 1100 ± 300 µM
kcat [10]: 0.2 ± 0.00833 s⁻¹
kcat/Km [10]: 180 M⁻¹ s⁻¹
